T1: human EphB2 (Homo sapiens, UniProt P29323)
T1 construct: a protein of the extracellular region of each human Eph receptor fused with the SEAP protein and the His tag; made in house; host or cells: Expi293F cells
T1 sequence (P29323 19-543 limits assumed): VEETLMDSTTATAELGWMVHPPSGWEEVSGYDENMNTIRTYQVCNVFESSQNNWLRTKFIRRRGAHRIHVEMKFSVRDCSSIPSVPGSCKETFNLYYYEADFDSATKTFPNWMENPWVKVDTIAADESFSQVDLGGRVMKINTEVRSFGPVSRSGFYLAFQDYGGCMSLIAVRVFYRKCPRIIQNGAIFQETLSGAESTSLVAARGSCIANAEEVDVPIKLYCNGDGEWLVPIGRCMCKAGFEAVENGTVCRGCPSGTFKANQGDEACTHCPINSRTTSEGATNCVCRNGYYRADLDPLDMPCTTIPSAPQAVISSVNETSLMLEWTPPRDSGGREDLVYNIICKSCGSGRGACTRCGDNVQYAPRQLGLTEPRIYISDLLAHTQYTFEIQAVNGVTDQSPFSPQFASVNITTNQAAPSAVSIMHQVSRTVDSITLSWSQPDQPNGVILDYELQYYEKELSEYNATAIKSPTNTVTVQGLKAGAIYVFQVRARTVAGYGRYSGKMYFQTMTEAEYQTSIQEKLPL

T2: human EphB3 (Homo sapiens, UniProt P54753)
T2 construct: a protein of the extracellular region of each human Eph receptor fused with the SEAP protein and the His tag; made in house; host or cells: Expi293F cells
T2 sequence (P54753 34-559 limits assumed): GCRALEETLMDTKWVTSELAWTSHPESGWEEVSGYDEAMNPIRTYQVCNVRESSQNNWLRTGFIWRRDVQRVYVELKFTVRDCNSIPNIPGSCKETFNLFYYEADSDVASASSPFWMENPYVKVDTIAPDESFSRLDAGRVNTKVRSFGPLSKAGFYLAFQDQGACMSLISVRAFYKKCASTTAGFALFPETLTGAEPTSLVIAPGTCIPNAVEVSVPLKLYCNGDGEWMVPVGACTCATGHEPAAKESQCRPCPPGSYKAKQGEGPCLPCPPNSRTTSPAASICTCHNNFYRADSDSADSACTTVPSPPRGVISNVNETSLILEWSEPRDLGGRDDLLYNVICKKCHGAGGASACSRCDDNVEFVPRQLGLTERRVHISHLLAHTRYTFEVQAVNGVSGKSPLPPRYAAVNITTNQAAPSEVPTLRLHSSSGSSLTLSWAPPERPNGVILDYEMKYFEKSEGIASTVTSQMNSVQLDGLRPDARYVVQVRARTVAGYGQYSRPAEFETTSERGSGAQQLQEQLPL

T3: human EphA3 (Homo sapiens, UniProt P29320)
T3 construct: a protein of the extracellular region of each human Eph receptor fused with the SEAP protein and the His tag; made in house; host or cells: Expi293F cells (culture supernatant)
T3 sequence (P29320 21-541 limits assumed): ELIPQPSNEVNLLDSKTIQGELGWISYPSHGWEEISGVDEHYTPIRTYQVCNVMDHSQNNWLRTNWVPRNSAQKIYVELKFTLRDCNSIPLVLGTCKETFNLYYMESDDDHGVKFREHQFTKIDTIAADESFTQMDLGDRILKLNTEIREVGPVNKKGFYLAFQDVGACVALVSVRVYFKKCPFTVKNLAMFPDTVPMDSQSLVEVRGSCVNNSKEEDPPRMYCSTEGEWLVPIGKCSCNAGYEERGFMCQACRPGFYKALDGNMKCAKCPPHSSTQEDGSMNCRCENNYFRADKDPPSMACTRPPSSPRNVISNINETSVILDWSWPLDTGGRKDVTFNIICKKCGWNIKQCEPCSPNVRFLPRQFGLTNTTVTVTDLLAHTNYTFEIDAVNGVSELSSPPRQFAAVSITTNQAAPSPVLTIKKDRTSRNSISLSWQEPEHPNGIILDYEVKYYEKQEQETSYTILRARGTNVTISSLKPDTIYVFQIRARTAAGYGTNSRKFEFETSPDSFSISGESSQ


Assays:
Assay in all cases: Selectivity ELISA of humanized antibodies for human Eph receptor
Type in all cases: binding
Conditions in all cases: coated protein 1 nM
[1] = target: T1, human EphB2
Procedure, shortened: (§1)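 His-tagged SEAP fusions of each human Eph receptor extracellular region, from Expi293F supernatants, were captured at 1 nM on anti-His-coated wells. Humanized antibody was bound 1 h at room temperature, then detected with HRP […] IgG. TMB development was acid-stopped and read at 450 nm.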

[2] = target: T2, human EphB3
Procedure, shortened: as §1

[3] = target: SEAP-His (Homo sapiens, UniProt P05187)
SEAP-His, sequence (P05187 23-511 limits assumed): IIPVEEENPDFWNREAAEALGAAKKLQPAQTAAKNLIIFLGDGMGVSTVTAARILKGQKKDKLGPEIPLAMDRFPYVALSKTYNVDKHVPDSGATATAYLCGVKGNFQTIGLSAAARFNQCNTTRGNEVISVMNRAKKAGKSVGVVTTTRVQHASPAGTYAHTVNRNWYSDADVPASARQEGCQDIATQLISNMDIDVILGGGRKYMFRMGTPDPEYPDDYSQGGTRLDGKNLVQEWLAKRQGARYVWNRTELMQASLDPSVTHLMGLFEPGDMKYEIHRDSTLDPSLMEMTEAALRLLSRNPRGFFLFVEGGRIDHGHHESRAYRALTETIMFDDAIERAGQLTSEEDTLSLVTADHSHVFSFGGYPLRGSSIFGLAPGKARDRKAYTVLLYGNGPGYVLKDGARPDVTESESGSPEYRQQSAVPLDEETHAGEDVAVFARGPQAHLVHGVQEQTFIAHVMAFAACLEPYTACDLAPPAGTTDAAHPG
Procedure, shortened: as §1

[4] = target: T3, human EphA3
Procedure, shortened: as §1

Molecule	hEphB2-SEAP-: absorbance at 450 nm, percentage with respect to hEphA4-SEAP-His as 100% [1] [%]	hEphB3-SEAP-: absorbance at 450 nm, percentage with respect to hEphA4-SEAP-His as 100% [2] [%]	SEAP-His: absorbance at 450 nm, percentage with respect to hEphA4-SEAP-His as 100% [3] [%]	hEphA3-SEAP-: absorbance at 450 nm, percentage with respect to hEphA4-SEAP-His as 100% [4] [%]
77 (antibody, V domains shown, synthetic humanized antibody heavy chain variable region sequence; synthetic humanized antibody light chain variable region sequence) VH: QVQLVQSGSELKKPGASVKVSCKASGYTFTDYSMHWVRQAPGQGLEWMGWINTETGEPTYADDFKGRFVFSLDTSVSTAYLQISSLKAEDTAVYYCARIPLYYYGSRYWYFDVWGQGTTVTVSS VL: DIQMTQSPSSLSASVGDRVTITCRASENIYRNLAWYQQKPGKAPKLLVYAATNLADGVPSRFSGSGSGTDYTLTISSLQPEDFATYYCQHFWGTPWTFGQGTKVEIK	4.5	4.6	4.7	4.5
78 (antibody, V domains shown, synthetic humanized antibody heavy chain variable region sequence; synthetic humanized antibody light chain variable region sequence) VH: QVQLVQSGSELKKPGASVKVSCKASGYTFTDYSMHWVRQAPGQGLKWMGWINTETGEPTYADDFKGRFVFSLDTSVSTAYLQISSLKAEDTAVYYCARIPLYYYGSRYWYFDVWGQGTTVTVSS VL: DIQMTQSPSSLSASVGDRVTITCRASENIYRNLAWYQQKPGKAPKLLVYAATNLADGVPSRFSGSGSGTDYTLTISSLQPEDFATYYCQHFWGTPWTFGQGTKVEIK	5.1	5.2	5.3	5.1

Results, then the molecule that gave them:

hEphB2-SEAP-: absorbance at 450 nm, percentage with respect to hEphA4-SEAP-His as 100% [1] [%]	hEphB3-SEAP-: absorbance at 450 nm, percentage with respect to hEphA4-SEAP-His as 100% [2] [%]	SEAP-His: absorbance at 450 nm, percentage with respect to hEphA4-SEAP-His as 100% [3] [%]	hEphA3-SEAP-: absorbance at 450 nm, percentage with respect to hEphA4-SEAP-His as 100% [4] [%]	Molecule
5.5	5.6	5.4	5.7	156 (antibody, V domains shown, synthetic humanized antibody heavy chain variable region sequence; synthetic humanized antibody light chain variable region sequence) VH: QIQLVQSGSELKKPGASVKVSCKASGYTFTDYSMHWVRQAPGQGLKWMGWINTETGEPTYAQGFTGRFVFSLDTSVSTAYLQISSLKAEDTAVYYCARIPLYYYGSRYWYFDVWGQGTTVTVSS VL: DIQMTQSPSSLSASVGDRVTITCRASENIYRNLAWYQQKPGKAPQLLLYAATNLADGVPSRFSGSGSGTDYTLTISSLQPEDFATYYCQHFWGTPWTFGQGTKVEIK
5.3	5.5	5.2	5.2	136 (antibody, V domains shown, synthetic humanized antibody heavy chain variable region sequence; synthetic humanized antibody light chain variable region sequence) VH: QVQLVQSGSELKKPGASVKVSCKASGYTFTDYSMHWVRQAPGQGLKWMGWINTETGEPTYADDFKGRFVFSLDTSVSTAYLQISSLKAEDTAVYYCARIPLYYYGSRYWYFDVWGQGTTVTVSS VL: EIVMTQSPATLSVSPGERATLSCRASENIYRNLAWYQQKPGQSPRLLIYAATNLADGIPARFSGSGSGTEYTLTISSLQSEDFAVYYCQHFWGTPWTFGQGTKVEIK

From patent publication US10428140B2, “Anti-EphA4 antibody” (EISAI R&D MANAGEMENT CO., LTD., priority 2015, dated 2019)
